What was measured:
purified CRR9 ectodomain = molecular target: T1, purified CRR9 ectodomain (human, UniProt Q5R7B1 32-284 (Pongo abelii entry), limits assumed); assay: ELISA with purified CRR9 ectodomain
T1 construct: also called CLPTM1L ectodomain
T1 sequence: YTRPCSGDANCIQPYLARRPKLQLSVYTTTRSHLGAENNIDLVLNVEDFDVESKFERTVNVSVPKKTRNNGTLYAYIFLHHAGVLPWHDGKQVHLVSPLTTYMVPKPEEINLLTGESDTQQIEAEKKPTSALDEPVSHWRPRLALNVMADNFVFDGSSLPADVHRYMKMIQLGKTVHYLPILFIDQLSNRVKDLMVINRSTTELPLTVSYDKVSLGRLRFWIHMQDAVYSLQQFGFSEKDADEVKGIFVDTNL

mouse CLPTM1L protein = molecular target: T2, mouse CLPTM1L protein (mouse, UniProt Q8BXA5 1-539); assay: flow cytometry on live ID8-luc mouse ovarian tumor cells (102-5 primary by the legend of FIG. 31A)
T2 construct: whole, on cells; also called the mouse protein
T2 sequence (looked up): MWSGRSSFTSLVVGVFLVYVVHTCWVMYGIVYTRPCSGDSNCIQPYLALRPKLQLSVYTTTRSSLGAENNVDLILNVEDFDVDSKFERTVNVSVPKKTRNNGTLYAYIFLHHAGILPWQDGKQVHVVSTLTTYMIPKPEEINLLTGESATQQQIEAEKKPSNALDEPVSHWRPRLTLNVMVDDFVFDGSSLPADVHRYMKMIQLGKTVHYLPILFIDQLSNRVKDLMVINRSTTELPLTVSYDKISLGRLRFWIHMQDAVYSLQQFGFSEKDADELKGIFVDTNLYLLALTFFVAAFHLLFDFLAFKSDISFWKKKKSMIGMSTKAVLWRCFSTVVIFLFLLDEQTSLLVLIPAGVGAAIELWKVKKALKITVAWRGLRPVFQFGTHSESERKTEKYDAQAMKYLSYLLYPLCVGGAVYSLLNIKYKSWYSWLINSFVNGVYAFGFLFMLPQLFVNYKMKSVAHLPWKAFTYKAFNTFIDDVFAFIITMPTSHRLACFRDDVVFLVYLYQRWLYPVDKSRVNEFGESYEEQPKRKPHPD
Protocol: (E) Final relative mean volumes of SL3 and SL3cis xenograft tumors 24 days post-inoculation. […] (F) Mean volumes of SL3 and SL3cis xenograft tumors relative to group mean volume after sorting from days 0 to 24 post-inoculation. *p<0.05, **p<0.005, ***p<0.0005. Error bars represent standard error of the mean.
Flow cytometry was conducted per AbCam protocol for indirect flow cytometry. Tumor cells were harvested by trypsinization and suspended in cold PBS, 10% FBS, 0.05% NaN₃. 100 μL of cell suspension was added to 12×75 mm polystyrene tubes. 10 μg/mL of primary antibody diluted in PBS 3% BSA was added and tubes were incubated at 4° C. in the dark for 45 minutes. After washing 3 times in cold PBS, cells were resuspended in rabbit anti-Human Fc (H&L)-Alexafluor 488 (Abcam) in PBS 3% BSA and incubated at 4 C in the dark for 30 minutes. After washing 3 times in cold PBS, cells were suspended in 500 μL cold PBS, 3% BSA, 0.05% NaN₃ and analyzed on an Accuri C6 flow cytometer. Cells were gated for live cells based on scatter and fluorescence was plotted on a histogram using Flowing Software 2 (Turku Bioimaging).

[1] = molecular target: T3, human CLPTM1L/CRR9 protein (human, UniProt Q96KA5 1-538); assay: on-cell detection of fluorescently labeled 102-5 on live Panc1 tumor cells, with or without competitors (excess 10-2 mouse ascites or excess purified CRR9 ectodomain)
T3 construct: also called Cisplatin Resistance Related Protein-9; Cleft-Lip and Palate Transmembrane Protein-Like Protein 1
T3 sequence: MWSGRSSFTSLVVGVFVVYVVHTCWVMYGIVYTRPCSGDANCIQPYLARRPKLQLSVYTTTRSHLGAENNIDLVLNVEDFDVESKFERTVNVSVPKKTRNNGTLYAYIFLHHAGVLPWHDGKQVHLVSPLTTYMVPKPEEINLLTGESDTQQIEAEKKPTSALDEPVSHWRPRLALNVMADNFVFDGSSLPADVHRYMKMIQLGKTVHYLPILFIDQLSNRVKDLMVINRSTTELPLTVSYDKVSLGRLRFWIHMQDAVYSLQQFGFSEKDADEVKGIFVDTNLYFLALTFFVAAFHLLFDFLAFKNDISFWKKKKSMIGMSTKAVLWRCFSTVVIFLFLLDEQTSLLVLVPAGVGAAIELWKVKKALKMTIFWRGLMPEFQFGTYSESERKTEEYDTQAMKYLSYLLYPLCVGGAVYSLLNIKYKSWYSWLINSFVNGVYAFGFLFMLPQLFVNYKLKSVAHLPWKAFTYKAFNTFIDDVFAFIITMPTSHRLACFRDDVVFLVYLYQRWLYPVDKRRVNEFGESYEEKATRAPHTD

B1: 102-5 full-length human IgG1 anti-CLPTM1L (antibody, V domains shown)
VH: EVQLLESGGGLVQPGGSLRLSCAASGFSFSSYEMNWVRQAPGKGPEWISYISSGGGTIYYADSVRGRFTISRDNSNNTLYLQMNSLRPDDTAIYYCARDRGRKWLQLLFDSWGQGTLVTVSS
VL: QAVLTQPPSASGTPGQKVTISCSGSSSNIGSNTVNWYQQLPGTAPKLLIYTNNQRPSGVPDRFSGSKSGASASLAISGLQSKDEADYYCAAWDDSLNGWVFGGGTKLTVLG
notes: also called ESS102-5
For B1, the Kd (purified CRR9 ectodomain) was 1 nM, the binding result (mouse CLPTM1L protein) was “binds” and the binding result [1] was “binds”.

Reference: patent US20250090876A1 (MEDICAL COLLEGE OF WISCONSIN, published 2025)
